In publication PMC7498309:

Experiments:
[1] = target: isolated HEPN domain (172–428 aa) of StCsm6 (Streptococcus thermophilus DGCC8004); assay: SEC
[2] = target: isolated CARF domain (1–169 aa) of StCsm6 (Streptococcus thermophilus DGCC8004); assay: SEC

Row | Substance | stoichiometry N [1] | stoichiometry N [2]
1 | isolated HEPN domain (172–428 aa) of StCsm6 (domain or fragment) | 2 | –
2 | isolated CARF domain (1–169 aa) of StCsm6 (domain or fragment) | – | 2
